In US20050069869A1 (UNIVERSITY OF MASSACHUSETTS, published 2005):

Assays:
[1] = target: SARS-CoV S protein of the virus (Urbani strain; virions and infected Vero cell extracts) (SARS-CoV, UniProt P59594 15-1190); experiment: cell-based or functional assay
[2] = target: S(1255), full length S protein with transmembrane and cytoplasmic domains, on transfected HEK 293 cells (SARS-CoV, UniProt P59594 15-1190); experiment: FACS on HEK 293 cells transfected with S(1255); given as ED50
[3] = target: T1, S(170), amino acids 1-170 of the SARS-CoV S protein (SARS-CoV, UniProt P59594 15-170); experiment: immunoprecipitation from culture supernatant, Western blot with anti-His6
T1 sequence: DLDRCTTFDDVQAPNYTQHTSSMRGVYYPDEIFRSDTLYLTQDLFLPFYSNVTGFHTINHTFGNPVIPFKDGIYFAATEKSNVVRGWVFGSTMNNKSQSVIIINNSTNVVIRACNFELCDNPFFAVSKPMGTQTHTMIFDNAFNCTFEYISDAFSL

[4] = target: S(490), amino acids 1-490 of the SARS-CoV S protein (SARS-CoV, UniProt P59594 15-490); experiment: as above
[5] = target: S(470), amino acids 1-470 of the SARS-CoV S protein (SARS-CoV, UniProt P59594 15-470); experiment: as above
[6] = target: T2, S(130), amino acids 1-130 of the SARS-CoV S protein (SARS-CoV, UniProt P59594 15-130); experiment: as above
T2 sequence: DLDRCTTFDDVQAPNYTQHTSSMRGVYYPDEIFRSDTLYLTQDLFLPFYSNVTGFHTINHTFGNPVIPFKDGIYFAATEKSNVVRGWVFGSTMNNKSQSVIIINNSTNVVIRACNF

[7] = target: T3, S(269), amino acids 1-269 of the SARS-CoV S protein (SARS-CoV, UniProt P59594 15-269); experiment: as above
T3 sequence: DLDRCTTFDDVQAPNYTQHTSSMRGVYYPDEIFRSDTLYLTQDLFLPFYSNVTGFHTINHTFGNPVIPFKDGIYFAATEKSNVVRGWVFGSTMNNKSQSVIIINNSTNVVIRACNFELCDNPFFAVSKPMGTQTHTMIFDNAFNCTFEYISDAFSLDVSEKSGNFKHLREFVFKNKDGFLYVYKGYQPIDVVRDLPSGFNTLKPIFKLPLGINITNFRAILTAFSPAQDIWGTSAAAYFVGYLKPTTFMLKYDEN

[8] = target: T4, S(150), amino acids 1-150 of the SARS-CoV S protein (SARS-CoV, UniProt P59594 15-150); experiment: as above
T4 sequence: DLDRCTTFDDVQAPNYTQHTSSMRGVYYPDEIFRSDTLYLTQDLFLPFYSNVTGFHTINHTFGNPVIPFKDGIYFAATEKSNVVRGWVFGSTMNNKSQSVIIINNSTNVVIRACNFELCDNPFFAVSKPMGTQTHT

[9] = target: S(590), N-terminal 590 amino acids of the SARS-CoV S protein (SARS-CoV, UniProt P59594 15-590); experiment: FACS; inhibition of myc-tagged S(590) binding to Vero E6 cells

B1: human monoclonal antibody 201.2 (antibody, V domains shown)
VH: EVQLVQSGGGLVHPGGSLRLSCAGSGFTFSSYDMHWVRQAPGKGLEWVSVVGTGDGTYYADSVKGRFTISRDNAKNSLYLQMNSLRAEDMAVYYCARDQWWGSDYWGQGTLVTVSS
VL: EIVLTQSPATLSLSPGERATLSCRASQSVSSYLAWYQQKPGQAPRLLIYDASNRATGIPARFSGSGSGTDFTLTISSLEPEDFAVYYCQQRSNWPLTFGGGTKVEIK
notes: also called 508-201; 7-508-201
[1]
  Viral Neut. in vitro (IC50, nM): 0.7 nM
[2]
  EC50: 6 nM
[3]
  binding result: no binding
[4]
  binding result: no binding
[5]
  binding result: no binding
[6]
  binding result: no binding
[7]
  binding result: no binding
[8]
  binding result: no binding
[9]
  IC50: 2 nM
